The term pKa denotes the negative logarithm of the acid dissociation constant. Higher therefore signals a group that holds its proton tightly.

This passage reports pKa results from PMC7467671.

What all share (assay): potentiometry
In data set [1] the target is Nterm1 (position 1, -----THMVLA). The conditions noted are these: 298 K, 0.1 M NaClO4.
Data set [2] deals with Glu9 (position 9, VLAKGED----). The conditions noted are these: 298 K, 0.1 M NaClO4.
The target in data set [3] is Asp10 (position 10, LAKGED-----). The conditions noted are these: 298 K; 0.1 M NaClO4; none (4 mM HClO4, titrated with 0.1 M carbonate-free NaOH); metal-free peptide, largely unstructured.
Data set [4] deals with Lys7 (position 7, HMVLAKGED--). The conditions noted are these: 298 K, 0.1 M NaClO4.
In data set [5] the target is His2 (position 2, ----THMVLAK). The conditions noted are these: 298 K, 0.1 M NaClO4.
Data set [6] concerns the target Nterm1 (position 1, -----TMVLDE). The note with it: 298 K, 0.1 M NaClO4.
Data set [7] concerns the target His7 (position 7, …--). The conditions noted are these: 298 K, 0.1 M NaClO4.
Data set [8] deals with Glu6 (position 6, …-). The note with it: 298 K; 0.1 M NaClO4; none (4 mM HClO4, titrated with 0.1 M carbonate-free NaOH); metal-free peptide, largely unstructured.
The target of data set [9] is Asp5 (position 5, -…). The conditions noted are these: 298 K; 0.1 M NaClO4; none (4 mM HClO4, titrated with 0.1 M carbonate-free NaOH); metal-free peptide, largely unstructured.
The target of data set [10] is Lys9 (position 9, LDEHAKG----). The note with it: 298 K, 0.1 M NaClO4.
Data set [11] deals with Nterm1 (position 1, -----GTAVML). The conditions noted are these: 298 K, 0.1 M NaClO4.
In data set [12] the target is His10 (position 10, MLKDEH-----). The note with it: 298 K, 0.1 M NaClO4.
Data set [13] concerns the target Glu9 (position 9, VMLKDEH----). The note with it: 298 K; 0.1 M NaClO4; none (4 mM HClO4, titrated with 0.1 M carbonate-free NaOH); metal-free peptide, largely unstructured.
The target in data set [14] is Asp8 (position 8, AVMLKDEH---). The note with it: 298 K; 0.1 M NaClO4; none (4 mM HClO4, titrated with 0.1 M carbonate-free NaOH); metal-free peptide, largely unstructured.
The target in data set [15] is Lys7 (position 7, …--). The note with it: 298 K, 0.1 M NaClO4.
Data set [16] has as its target His10 (position 10, GGGDEH-----). The note with it: 298 K, 0.1 M NaClO4.
Data set [17] has as its target Nterm1 (position 1, -----DEHGGG). The conditions noted are these: 298 K, 0.1 M NaClO4.
In data set [18] the target is Asp8 (position 8, HGGGGDEH---). The conditions noted are these: 298 K; 0.1 M NaClO4; none (4 mM HClO4, titrated with 0.1 M carbonate-free NaOH); metal-free peptide, largely unstructured.
For data set [19], the target named is His3 (position 3, ---DEHGGGGD). The note with it: 298 K, 0.1 M NaClO4.
In data set [20] the target is Glu9 (position 9, GGGGDEH----). The conditions noted are these: 298 K; 0.1 M NaClO4; none (4 mM HClO4, titrated with 0.1 M carbonate-free NaOH); metal-free peptide, largely unstructured.
Data set [21] concerns the target Asp1 (position 1, -----DEHGGG). The conditions noted are these: 298 K; 0.1 M NaClO4; none (4 mM HClO4, titrated with 0.1 M carbonate-free NaOH); metal-free peptide, largely unstructured.
Data set [22] deals with Glu2 (position 2, ----DEHGGGG). The note with it: 298 K; 0.1 M NaClO4; none (4 mM HClO4, titrated with 0.1 M carbonate-free NaOH); metal-free peptide, largely unstructured.
Data set [23] concerns the target Lys10 (position 10, TAVMLK-----). The conditions noted are these: 298 K, 0.1 M NaClO4.
For data set [24], the target named is Asp1 (position 1, -----DEHGTA). The note with it: 298 K; 0.1 M NaClO4; none (4 mM HClO4, titrated with 0.1 M carbonate-free NaOH); metal-free peptide, largely unstructured.
Data set [25] addresses Glu2 (position 2, ----DEHGTAV). The note with it: 298 K, 0.1 M NaClO4.
In data set [26] the target is His3 (position 3, ---DEHGTAVM). The conditions noted are these: 298 K, 0.1 M NaClO4.
For data set [27], the target named is Nterm1 (position 1, -----DEHGTA). The conditions noted are these: 298 K, 0.1 M NaClO4.
Where [28] appears, read: none (4 mM HClO4, titrated with 0.1 M carbonate-free NaOH), metal-free peptide, largely unstructured.
The mark [29] stands for this setting: none (4 mM HClO4, titrated with NaOH), Mn(II)-bound, Mn(II):peptide 1:1.1, [Mn(II)]tot = 0.5 mM.
Where [30] appears, read: none (4 mM HClO4, titrated with NaOH), Cu(II)-bound, Cu(II):peptide 1:1.1, [Cu(II)]tot = 1 mM.

Consider THMVLAKGED [DP2 decapeptide (THMVLAKGED) (synthetic construct (scrambled DP1; Deinococcus radiodurans-inspired))], for which the pKa is recorded as 7.01 in data set [1] (setting [28]); 6.59 in data set [1] (setting [29]); 4.70 in data set [2] (setting [28]); 4.91 in [2] (setting [30]); 3.89 in [3]; 9.86(1) in [4] (setting [28]). Also, the pKa in data set [4] (setting [30]) came to 9.87; in data set [4] (setting [29]), 8.29; in data set [5] (setting [28]) it was 5.91; in data set [5] (setting [29]), 5.40.
As for TMVLDEHAKG [Mid-DEH decapeptide (TMVLDEHAKG) (synthetic construct (Deinococcus radiodurans-inspired))], the pKa came to 7.33 in [6] (setting [28]); 4.59 in data set [6] (setting [30]); 7.21 in data set [6] (setting [29]); 6.29 in data set [7] (setting [28]); 6.42 in data set [7] (setting [29]); 4.06 in data set [8]. For the same protein, the pKa in data set [9] is given as 3.55; in [10] (setting [28]) it was 10.52(1); in data set [10] (setting [30]) it was 11.20; in data set [10] (setting [29]), 9.8.
As to GTAVMLKDEH [Term-DEH decapeptide (GTAVMLKDEH) (synthetic construct (Deinococcus radiodurans-inspired))], the pKa was found to be 8.16 in data set [11] (setting [28]); 5.34 in [11] (setting [30]); 7.79 in data set [11] (setting [29]); 7.02 in [12] (setting [28]); 7.08 in data set [12] (setting [29]); 4.31 in data set [13]. Also, the pKa is listed as 3.46 in [14], 10.82(1) in data set [15] (setting [28]) and 11.05 in [15] (setting [30]).
With DEHGGGGDEH [Bis-DEH decapeptide (DEHGGGGDEH) (synthetic construct (Deinococcus radiodurans-inspired))], the pKa in data set [16] (setting [28]) was determined as 7.41; in data set [16] (setting [30]), 7.73; in data set [16] (setting [29]), 6.37; in data set [17] (setting [28]), 8.41; in [17] (setting [29]) it was 7.82; in data set [18] it was 3.36. The pKa in [19] (setting [28]) amounted to 6.67; in data set [19] (setting [29]), 7.25; in data set [20], 4.69; in [21], 2.67; in data set [22] it was 4.05.
As to DEHGTAVMLK, the pKa in data set [23] (setting [28]) is 9.62(3); in data set [23] (setting [30]), 9.00; in [23] (setting [29]) it was 8.96; in [24], 3.06; in data set [25] (setting [28]), 4.20; in data set [25] (setting [30]), 4.17. In addition, the pKa in data set [26] (setting [28]) worked out at 6.47; in data set [26] (setting [29]), 6.11; in data set [27] (setting [28]) it was 7.85; in data set [27] (setting [29]) it was 7.5.
